Assay results taken from PMC11982451 (The Journal of Biological Chemistry, 2025).

Biological target: T1, 2CARD domain of human RIG-I, residues 1-200, recombinant (human, UniProt O95786 1-200)
T1 sequence (looked up): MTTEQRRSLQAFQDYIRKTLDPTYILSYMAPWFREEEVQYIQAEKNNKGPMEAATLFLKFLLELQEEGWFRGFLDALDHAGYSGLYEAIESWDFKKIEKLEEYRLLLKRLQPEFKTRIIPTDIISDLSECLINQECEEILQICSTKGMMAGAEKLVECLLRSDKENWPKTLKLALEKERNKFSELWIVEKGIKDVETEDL
Experiment: NMR titration

B1: PRYSPRY domain (PSpry) of human TRIM25, residues 433-630, recombinant (domain or fragment, UniProt Q14258 433-630, looked up)
chain: STSLKAKVLETFLAKSRPELLEYYIKVILDYNTAHNKVALSECYTVASVAEMPQNYRPHPQRFTYCSQVLGLHCYKKGIHYWEVELQKNNFCGVGICYGSMNRQGPESRLGRNSASWCVEWFNTKISAWHNNVEKTLPSTKATRVGVLLNCDHGFVIFFAVADKVHLMYKFRVDFTEALYPAFWVFSAGATLSICSPK
binding result: binds
